# In US20210230294A1 (Incyte, published 2021):
# Assays:
# [1] = molecular target: T1, cynomolgus CD73 (SEQ ID NO:72) (cynomolgus, UniProt P21589 27-549 (human entry)); assay: SPR (Biacore 8K), antibody captured on anti-human Fc, CD73 as analyte, open conformation
# T1 construct: Open conformation (normal SPR running buffer)
# T1 chain: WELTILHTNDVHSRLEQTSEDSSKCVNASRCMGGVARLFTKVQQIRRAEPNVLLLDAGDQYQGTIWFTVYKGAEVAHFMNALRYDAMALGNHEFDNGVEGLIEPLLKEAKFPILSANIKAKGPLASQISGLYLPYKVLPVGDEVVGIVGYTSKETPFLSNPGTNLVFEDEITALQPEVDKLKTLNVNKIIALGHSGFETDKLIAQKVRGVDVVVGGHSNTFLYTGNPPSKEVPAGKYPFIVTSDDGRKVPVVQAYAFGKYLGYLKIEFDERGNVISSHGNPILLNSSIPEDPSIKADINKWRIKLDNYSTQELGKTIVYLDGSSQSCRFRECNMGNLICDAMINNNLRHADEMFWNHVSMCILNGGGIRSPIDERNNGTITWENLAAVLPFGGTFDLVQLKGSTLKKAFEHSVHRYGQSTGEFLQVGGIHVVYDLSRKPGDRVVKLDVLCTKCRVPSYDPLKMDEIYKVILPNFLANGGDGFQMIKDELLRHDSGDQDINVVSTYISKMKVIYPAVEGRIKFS
# Method: (§1) The SPR running buffer (10 mM HEPES, 150 mM NaCl, 3 mM EDTA and 0.05% v/v Surfactant P20, pH 7.4) was prepared from 10×HBS-EP Buffer (GE Healthcare). Anti-human Fc antibodies (GE Healthcare) were immobilized via amine coupling on all sixteen flow cells of an S series sensor chip CM5 (GE Healthcare). The immobilization levels were ˜9000 RU for all flow cells. […] The non-cleavable ADP analogue APCP (adenosine-5′-(α,β-methylene) diphosphate) with the presence of Zn²⁺ can be used to shift the CD73 conformational equilibrium from open towards closed. Therefore, recombinant CD73 was incubated with SPR running buffer in the presence of 100 μM APCP and 10 μM ZnCl₂ (closed SPR running buffer) to study the binding of anti-CD73 antibody to the CD73 in the closed conformation. To achieve this, the ABA injection feature in Biacore 8K was used. For open conformation, the ABA injection sequence started with 60 seconds injection of running buffer. Then, CD73 3-fold serial dilution concentration series prepared from CD73 stock (BPS Bioscience) and running buffer were injected for 180 seconds immediately followed by running buffer for 240 seconds. For closed conformation, the normal SPR running buffer was replaced by closed SPR running buffer. Surface was regenerated with 30 seconds injection of 3 M MgCl₂.
# [2] = molecular target: T2, recombinant human CD73 (SEQ ID NO:70) (human, UniProt P21589 27-549); assay: as above
# T2 construct: Soluble recombinant protein in normal SPR running buffer (open conformation), the soluble enzyme assay and HDX-MS; SPR stock bought from BPS Bioscience; also called rhuCD73; CD73 in the open conformation
# T2 sequence: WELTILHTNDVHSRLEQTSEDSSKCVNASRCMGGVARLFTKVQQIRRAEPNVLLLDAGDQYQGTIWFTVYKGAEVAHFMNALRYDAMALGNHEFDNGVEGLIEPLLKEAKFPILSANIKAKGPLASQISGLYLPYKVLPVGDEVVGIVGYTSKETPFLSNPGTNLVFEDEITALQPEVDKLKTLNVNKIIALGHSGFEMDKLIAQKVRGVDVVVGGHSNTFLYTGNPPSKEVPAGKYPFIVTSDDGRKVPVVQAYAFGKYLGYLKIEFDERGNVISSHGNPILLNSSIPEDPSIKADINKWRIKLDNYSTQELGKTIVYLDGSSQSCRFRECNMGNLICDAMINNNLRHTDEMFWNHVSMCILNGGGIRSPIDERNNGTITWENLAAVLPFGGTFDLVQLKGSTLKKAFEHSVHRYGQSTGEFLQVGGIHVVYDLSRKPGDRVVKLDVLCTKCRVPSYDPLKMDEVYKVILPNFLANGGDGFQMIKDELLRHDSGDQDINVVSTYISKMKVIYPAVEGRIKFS
# Method: as §1
# [3] = molecular target: T3, mouse CD73 (SEQ ID NO:71) (mouse, UniProt Q61503 29-551); assay: as above
# T3 construct: Open conformation (normal SPR running buffer); also called Murine; murine CD73
# T3 sequence: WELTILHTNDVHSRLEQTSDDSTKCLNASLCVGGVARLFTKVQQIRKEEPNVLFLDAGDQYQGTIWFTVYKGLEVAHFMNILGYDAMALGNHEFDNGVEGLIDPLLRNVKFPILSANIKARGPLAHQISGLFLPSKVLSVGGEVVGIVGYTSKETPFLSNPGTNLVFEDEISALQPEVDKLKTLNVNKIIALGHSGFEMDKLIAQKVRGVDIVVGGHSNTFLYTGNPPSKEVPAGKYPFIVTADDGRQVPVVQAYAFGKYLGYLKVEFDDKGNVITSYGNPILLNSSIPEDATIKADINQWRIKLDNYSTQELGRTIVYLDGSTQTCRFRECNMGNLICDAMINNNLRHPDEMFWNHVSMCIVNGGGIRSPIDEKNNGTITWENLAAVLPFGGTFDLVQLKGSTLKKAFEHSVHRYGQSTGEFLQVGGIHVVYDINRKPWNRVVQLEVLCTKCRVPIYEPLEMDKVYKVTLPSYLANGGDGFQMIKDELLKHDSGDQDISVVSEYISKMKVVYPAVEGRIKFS
# Method: as §1
# [4] = molecular target: T4, recombinant human CD73 in the closed conformation (human, UniProt P21589 27-549); assay: SPR (Biacore 8K), antibody captured on anti-human Fc, CD73 as analyte, buffer with APCP and ZnCl2 (closed conformation)
# T4 construct: Kept apart from m1 because results differ between the two states; also called human CD73, Closed
# T4 sequence: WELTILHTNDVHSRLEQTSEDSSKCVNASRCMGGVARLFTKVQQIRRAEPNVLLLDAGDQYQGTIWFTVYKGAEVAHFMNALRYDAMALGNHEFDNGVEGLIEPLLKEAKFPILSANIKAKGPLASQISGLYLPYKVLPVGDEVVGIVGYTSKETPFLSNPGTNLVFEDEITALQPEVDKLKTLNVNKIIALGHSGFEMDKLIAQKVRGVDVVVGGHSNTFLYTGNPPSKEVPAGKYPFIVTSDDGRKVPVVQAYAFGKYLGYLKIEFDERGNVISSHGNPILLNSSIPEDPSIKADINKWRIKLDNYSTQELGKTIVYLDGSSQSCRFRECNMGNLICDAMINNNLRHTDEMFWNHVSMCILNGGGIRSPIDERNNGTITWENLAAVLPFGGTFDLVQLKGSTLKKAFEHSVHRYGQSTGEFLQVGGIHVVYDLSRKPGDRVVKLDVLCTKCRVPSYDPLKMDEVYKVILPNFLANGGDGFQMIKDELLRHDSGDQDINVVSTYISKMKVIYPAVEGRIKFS
# Method: as §1
# [5] = molecular target: T5, cynomolgus CD73 in the closed conformation (cynomolgus, UniProt P21589 27-549 (human entry)); assay: as above
# T5 construct: Same protein as m2 in buffer with 100 uM APCP and 10 uM ZnCl2 (closed conformation); also called Cynomolgus, Closed
# T5 chain: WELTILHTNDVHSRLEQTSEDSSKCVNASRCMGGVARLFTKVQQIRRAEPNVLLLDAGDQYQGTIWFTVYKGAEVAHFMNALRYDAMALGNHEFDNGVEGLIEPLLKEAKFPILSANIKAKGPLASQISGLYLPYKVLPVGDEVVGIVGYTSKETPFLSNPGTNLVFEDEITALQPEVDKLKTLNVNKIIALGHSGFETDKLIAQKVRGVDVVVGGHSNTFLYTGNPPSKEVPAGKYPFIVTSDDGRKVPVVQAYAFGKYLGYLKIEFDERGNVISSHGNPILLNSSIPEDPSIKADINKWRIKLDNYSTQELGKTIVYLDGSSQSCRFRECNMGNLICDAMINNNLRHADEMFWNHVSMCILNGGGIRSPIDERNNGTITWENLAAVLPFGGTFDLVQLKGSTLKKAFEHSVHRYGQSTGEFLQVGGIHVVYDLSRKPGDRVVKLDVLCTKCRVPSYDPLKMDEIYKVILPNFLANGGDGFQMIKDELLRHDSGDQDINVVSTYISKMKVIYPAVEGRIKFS
# Method: as §1
# [6] = molecular target: T6, mouse CD73 in the closed conformation (mouse, UniProt Q61503 29-551); assay: as above
# T6 construct: Same protein as m3 in buffer with 100 uM APCP and 10 uM ZnCl2 (closed conformation); also called Murine, Closed
# T6 sequence: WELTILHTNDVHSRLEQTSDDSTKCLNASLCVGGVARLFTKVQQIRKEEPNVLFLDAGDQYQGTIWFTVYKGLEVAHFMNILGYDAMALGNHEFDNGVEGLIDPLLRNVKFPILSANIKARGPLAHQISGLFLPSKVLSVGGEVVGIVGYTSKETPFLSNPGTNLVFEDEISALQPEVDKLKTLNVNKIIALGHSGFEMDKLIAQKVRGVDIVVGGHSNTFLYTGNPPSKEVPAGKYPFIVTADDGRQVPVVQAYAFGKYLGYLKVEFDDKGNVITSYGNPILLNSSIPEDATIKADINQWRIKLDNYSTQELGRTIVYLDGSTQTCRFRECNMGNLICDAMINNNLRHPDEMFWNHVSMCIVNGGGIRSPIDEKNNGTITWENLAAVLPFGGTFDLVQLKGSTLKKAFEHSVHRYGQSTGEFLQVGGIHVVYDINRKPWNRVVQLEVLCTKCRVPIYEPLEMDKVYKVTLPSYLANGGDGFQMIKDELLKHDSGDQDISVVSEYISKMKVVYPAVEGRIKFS
# Method: as §1
# [7] = molecular target: T7, human CD73 on the cell surface (MDA-MB-231 and A375 cells) (human, UniProt P21589 27-549); assay: flow cytometry on A375 cells, PE-conjugated secondary antibody, GMFI
# T7 construct: also called cell surface CD73; cellular CD73
# T7 sequence: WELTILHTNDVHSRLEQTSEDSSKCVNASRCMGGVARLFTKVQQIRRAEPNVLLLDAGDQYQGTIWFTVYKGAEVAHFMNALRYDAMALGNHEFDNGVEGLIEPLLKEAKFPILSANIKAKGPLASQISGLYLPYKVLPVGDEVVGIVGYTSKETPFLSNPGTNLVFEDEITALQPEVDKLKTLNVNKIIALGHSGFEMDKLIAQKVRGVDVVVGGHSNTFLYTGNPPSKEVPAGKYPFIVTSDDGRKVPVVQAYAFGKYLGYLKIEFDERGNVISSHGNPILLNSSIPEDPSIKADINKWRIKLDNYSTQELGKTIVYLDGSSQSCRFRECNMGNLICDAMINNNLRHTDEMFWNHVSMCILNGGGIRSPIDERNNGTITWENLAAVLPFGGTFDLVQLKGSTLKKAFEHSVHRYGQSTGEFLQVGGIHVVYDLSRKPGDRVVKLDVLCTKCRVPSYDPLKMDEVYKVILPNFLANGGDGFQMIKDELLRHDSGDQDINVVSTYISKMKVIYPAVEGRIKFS
# [8] = molecular target: T7, human CD73 on the cell surface …; assay: flow cytometry on MDA-MB-231 cells, PE-conjugated secondary antibody, GMFI
# [9] = molecular target: T7, human CD73 on the cell surface …; assay: as above; remark: listed apart in the source
# Method: Cells were stained with the indicated concentration of antibodies for 1 hour on ice. Cells were then washed and stained goat anti-mouse secondary conjugated to PE for 30 minute on ice. Cells were then washed and analyzed by flow cytometry. The GMFI of CD73 staining is graphed (FIG. 13).
# [10] = molecular target: T7, human CD73 on the cell surface …; assay: as above; remark: listed apart in the source
# Method: The cells were stained with the indicated concentration of antibodies for 30 minutes on ice (FIG. 2A and FIG. 2B). Next, the cells were washed and stained using goat anti-mouse secondary conjugated to phycoerythrin (PE) for 30 minutes on ice. The cells were then washed and analyzed by flow cytometry. Geometric mean fluorescence intensity (GMFI) of CD73 staining was graphed (FIG. 2A and FIG. 2B).
binder,measurement,setting,value
"CL25 (chimeric antibody, murine VH/VL with human IgG1/kappa constant regions) (antibody, V domains shown, also called Chimeric antibody CL25) VH: QVQLQQSGAELARPGASVKLSCRASGYTFTSYGLSWVKQRTGQGLEWIGEIYPGSGNTYYNEKFKGKATLTADKSSSTAYMELRSLTSEDSAVYFCARYDYLGSSYGFDYWGQGTTLTVSS VL: DIVMTQSHKFMSTSVGDRVSITCKASQDVSTAVAWYQQKPGQSPKLLIYSASYRYNGVPDRFTGSGSGTDFTFTISSVQAEDLAVYYCQQHYNTPYTFGGGTKLEIKR",Kd,[1],< 0.658 nM
same,koff,[1],0.000658 s⁻¹
same,kon,[1],> 1e+06 M⁻¹ s⁻¹
same,Kd,[2],< 0.394 nM
same,koff,[2],0.000394 s⁻¹
same,kon,[2],> 1e+06 M⁻¹ s⁻¹
same,binding result,[3],no binding
same,Kd,[4],0.381 nM
same,koff,[4],0.000344 s⁻¹
same,kon,[4],903000 M⁻¹ s⁻¹
same,Kd,[5],0.529 nM
same,koff,[5],0.000495 s⁻¹
same,kon,[5],936000 M⁻¹ s⁻¹
same,binding result,[6],no binding
"3-F03 (full-length human antibody) (antibody, human IgG1, kappa, N297A, Human IgG1/kappa with N297A; also called Antibody 3-F03; Clone 3-F03) heavy: not shown light: IQMTQSPSSLSASVGDRVTITCRASQGISNYLAWYQQKPGKAPKLLIYAASTLQSGVPSRFSGSGSGTDFTLTISSLQPEDFATYYCQQSYSTPHFGQGTRLEIKRTVAAPSVFIFPPSDEQLKSGTASVVCLLNNFYPREAKVQWKVDNALQSGNSQESVTEQDSKDSTYSLSSTLTLSKADYEKHKVYACEVTHQGLSSPVTKSFNRGEC",Kd,[1],0.734 nM
same,Kd,[2],0.37 nM
same,Kd,[3],1.66 nM
same,EC50 (read off the curve),[7],~0.1 µg/mL
same,EC50 (read off the curve),[8],~3 µg/mL
"3-F03_411 (antibody, human IgG1, kappa, N297A) heavy: not shown light: IQMTQSPSSLSASVGDRVTITCRASQGISNYLAWYQQKPGKAPKLLIYAASTLQSGVPSRFSGSGSGTDFTLTISSLQPEDFATYYCQQSYSTPHFGQGTRLEIKRTVAAPSVFIFPPSDEQLKSGTASVVCLLNNFYPREAKVQWKVDNALQSGNSQESVTEQDSKDSTYSLSSTLTLSKADYEKHKVYACEVTHQGLSSPVTKSFNRGEC",EC50 (read off the curve),[9],~1 µg/mL
"CL25_hu_11-4 (antibody, V domains shown, Humanized CL25 antibody) VH: QVQLVQSGAEVKKPGASVKVSCKASGYTFTSYGLSWVRQATGQGLEWMGEIYPGSGNTYYNEKFKGRVTMTANTSISTAYMELSSLRSEDTAVYYCARYDYLGSSYGFDYWGAGTTVTVSS VL: DIQMTQSPSSLSASVGDRVTITCKASQDVSTAVAWYQQKPGKAPKLLLYSASYRYSGVPSRFSGSGSGTDYTLTISSLQPEDFATYYCQQHYNTPYTFGGGTKLEIK",Kd,[2],2.48 nM
same,koff,[2],0.00155 s⁻¹
same,kon,[2],624000 M⁻¹ s⁻¹
same,EC50 (read off the curve),[10],~0.1 µg/mL
